Source: the supplement of paper PMC10567573

B1: C6orf223 (parent)
chain: TLARMSRRTRGPVERAAAAAAAAA
B2: FAM50A (parent)
chain: KALEILRKDFSELRSAGVEQLMYI

Variants of: B1
Test: protein stability index of a GFP-peptide fusion (GPS, HEK-293T) (PSI 1-6); higher = more stable
Settings: c terminus: a fixed tail appended
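Note: lentivirally expressed fusions sorted by FACS into six bins by GFP to DsRed ratio, PSI derived from sequencing read proportions per bin multiplied by bin number.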

In order of rising protein stability index:
1. A18M  1.56
2. A17F  1.63
3. R4I  1.94
4. A21M  1.95
5. A22K  1.97
6. R15W  2.01
7. A18Y  2.13
8. A21V  2.18
9. A22I  2.23
10. P12W  2.27
11. A22F  2.37
12. A22L  2.4
13. A18Q  2.4
14. A18W  2.45
15. A18S  2.48
16. A22Y  2.66
17. A22W  2.68
18. A21W  2.83
19. A18L  2.92
20. A23L  3.09
21. A22T  3.2
22. A18N  3.25
23. A22C  3.33
24. A22N  3.38
25. A18I  3.43
26. A19K  3.43
27. A23I  3.49
28. A17R  3.5
29. A18T  3.57
30. A17T  3.76
31. A16S  3.8
32. A23C  3.99
33. A18P  4.09
34. A17Y  4.15
35. L2E  4.7

Variants of: B2
Test: as above
Settings: c terminus: a fixed tail appended

In order of falling protein stability index:
1. L13H  5.15
2. K8L  4.84
3. V18F  4.7
4. S15H  4.69
5. Q20K  4.59
6. R14L  4.57
7. K8R  4.36
8. G17A  4.16
9. R14C  4.11
10. E19P  4.03
11. E12R  4
12. E12S  3.99
13. R7L  3.87
14. V18L  3.85
15. D9S  3.85
16. L21R  3.83
17. Q20D  3.81
18. D9E  3.81
19. E12Q  3.76
20. F10V  3.72
21. R14F  3.71
22. E12N  3.69
23. Q20V  3.63
24. Q20P  3.58
25. K8G  3.52
26. E12T  3.5
27. V18I  3.33
28. K8W  3.31
29. R7F  3.25
30. F10H  3.24
31. K8F  3.19
32. L21P  3.17
33. A16E  3.17
34. E19H  3.15
35. S15A  3.13
36. L21Y  3.12
37. S11I  3.09
38. L13A  3.08
39. K8N  3.03
40. L21G  3
41. E12A  2.97
42. S11H  2.97
43. G17Y  2.95
44. E19Q  2.95
45. R7T  2.91
46. E19F  2.9
47. V18E  2.9
48. D9C  2.89
49. L21N  2.82
50. S11R  2.76
51. A16I  2.76
52. E12V  2.75
53. Q20L  2.75
54. R14W  2.68
55. Y23K  2.67
56. E19I  2.66
57. S15R  2.64
58. V18K  2.61
59. D9F  2.6
60. R7S  2.59
61. Q20Y  2.58
62. R7H  2.58
63. M22C  2.56
64. D9M  2.56
65. F10M  2.52
66. V18G  2.52
67. S15F  2.51
68. S11E  2.51
69. L6Q  2.51
70. M22P  2.46
71. Y23E  2.41
72. D9A  2.4
73. M22Q  2.37
74. L6V  2.36
75. V18N  2.35
76. M22F  2.34
77. F10N  2.32
78. M22W  2.3
79. R14S  2.28
80. R7P  2.28
81. K8I  2.27
82. L6S  2.27
83. D9V  2.25
84. L6F  2.24
85. L21D  2.23
86. M22D  2.22
87. M22T  2.22
88. E19L  2.18
89. R7I  2.18
90. K8D  2.16
91. E12L  2.09
92. A16V  2.07
93. L6P  2.03
94. V18Y  2.02
95. L13I  2
96. E19N  2
97. I24C  1.98
98. M22I  1.97
99. R14N  1.95
100. G17D  1.95
101. E19W  1.95
102. I24K  1.94
103. L6R  1.89
104. G17H  1.88
105. L6T  1.85
106. L21A  1.78
107. E19G  1.76
108. F10A  1.74
109. L6N  1.74
110. I24Q  1.73
111. R14Y  1.69
112. R14E  1.68
113. S11D  1.6
114. L6G  1.57
115. D9L  1.57
116. L6H  1.55
117. Q20M  1.54
118. R7E  1.54
119. I24S  1.54
120. L13K  1.53
121. R14K  1.51
122. Y23D  1.45
123. V18S  1.28
124. M22E  1.27
125. R7A  1.25
126. S11Y  1.21
127. I24N  1.21
128. D9Q  1.2
129. S15D  1.14
130. L6K  1.09
131. Y23N  1.03
132. I24E  1.01
